{"source": "patent US20220194997A1", "about": "“SUMO PEPTIDES FOR TREATING NEURODEGENERATIVE DISEASES” (The Chinese University of Hong Kong, priority 2019, published 2022)", "target": "SUMO1(15-55) (human)", "sequence (peptide, as listed by the source limits assumed)": "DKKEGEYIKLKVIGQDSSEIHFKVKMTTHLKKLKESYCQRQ", "assay": "MST (FIG. 11b)", "data": [{"substance": "αsyn(33-58) (peptide)", "values": [{"measurement": "binding ability relative to the sole β1, β2-strand peptides (fold of the sole β1, β2-strand peptides)", "result": 0.037}]}]}
